A short description of this data set: soluble on expression in E. coli; label from the status in PepcDB or PDB records.
As to “MSLGKTLLVDSKGLILDGKHIIPVMGEIHYSRVPESEWRREIRKMKAGGINIISTYIFWIHHEPEEGKWNWSGNHNLRRFVRICAEENVMLVLRLGPFCHGEVYQGGIPSWVHEKAGQNPKYKIRARTPGFLEDCTELYNTIFAQVNGLLWKDGGPVVGVQIENESRGPWDYLEALKNIAVKAGFDVPFYTRTGWPALRGKEVFGQLLPLYGDYADGFWDRKLEDMPGSYADAFIMRDKRMSSAIATETFSKEELSEDSPSLSSKLSYPYFTCELGGGMMPAYHRRININGKELKPLVICKLGSGSNLPGYYMYHGGTNPYNPLHTMGETQSSPGTNHNDLPHMTYDFQAPLGEVGQVFETPFHEGRFIHQMLTDWGSELLQMNVDSLSRHYARRGAFEFYNDYVRIKNESGTSHVTFKDYRTEGATIDWTTVEPFCKVDGLIYFIEIRGKKPQISVDGKVYTCKLNKEGHHHHHH”, the “soluble on expression in E. coli” value is recorded as “not soluble”.

Regarding “MIKPYDFVPFLPYKPYDDVKAERGDGKIPIRVKTLTPVHIPSGEYTVSGDNSMIYKEFVKVNGVPVIPGTSFKGCIRSIAESISYSCLYIFDKQKKELIPEFKLEAQEKDHEKNKEQRNENGKKCIVSDMFGMPGQKSKIVFNDLRGVPNKYKLEIKGIPTSFRPNPDAEYYLENGKYKGYKFYKHGINGIQPKGNMLCEFAAENSLFEGEIIYKNLTEEQIRLLCFSLGLSGDINPKIGYGKNYFYGSIEVTSDAKWVEKAKQYKNIEKDDIKNNINLIISILNYKNAVTSVD”, the “soluble on expression in E. coli” value is “soluble”.

Consider “MGSDKIHHHHHHMLAKRIIACLDVKDGRVVKGTNFENLRDSGDPVELGKFYSEIGIDELVFLDITASVEKRKTMLELVEKVAEQIDIPFTVGGGIHDFETASELILRGADKVSINTAAVENPSLITQIAQTFGSQAVVVAIDAKRVDGEFMVFTYSGKKNTGILLRDWVVEVEKRGAGEILLTSIDRDGTKSGYDTEMIRFVRPLTTLPIIASGGAGKMEHFLEAFLAGADAALAASVFHFREIDVRELKEYLKKHGVNVRLEGL”, for which the “soluble on expression in E. coli” value was “soluble”.

As to “ENLKLGFLVAQPEEPASQTQWKFADKAGKDLGFEVIKIAVPDGEKTLNAIDSLAASGAKGFVISTPDPKLGSAIVAKARGYDMKVIAVDNQFVNAKGKPMDTVPLVMEAATKIGERQGQELYKEMQKRGWDVKESAVMAITANELDTARRRTTGSMDALKAAGFPEKQIYQVPTKSEDIPGAFDAANSMLVQHPEVKHWLIVGMNDSTVLGGVRATEGQGFKAADIIGIGINGVDAVSELSKAQATGFYGSLLPSPDVHGYKSSEMLYNWVAKDVEPPKFTEVTDVVLITRDNFKEECEKKGLGGK”, the “soluble on expression in E. coli” value was “soluble”.

Regarding “MDNQISVPPALTGNYAFFFDLDGTLADIQPHPDQVVIPDSTLQALNALAQQQGGAVALISGRSMAELDALTHPWRLPLAGVHGAERRDINGKTYIVSLPTALRDEIAAELTSALEALPGCELESKEMAFALHYRQAPQQQSAVLELAQRIVQRYPLLALQLGKCVVEIKPRGVNKGEAITAFMQEAPFAGREPVFVGDDLTDEAGFSVVNQLQGMSVKVGAGETQAHWRLADAAAVRTWLQHLAYDAQTERRDDHESFSRSL”, the “soluble on expression in E. coli” value is on record as “not soluble”.

With “MSLTLIYGHRGAKGEAPENTLASFQRCLEHGVNRCELDLHLSRDGELMVIHDPTLKRTTGRRGKVAEHDAATLATYDARKGGPGWVRPTPIPRLEELFEKCPFEHWQLEVKSASRERAARTVTRIRELTERFGNRDKVTVTSGSRTVLKALNELTPELSRGLVAEYAWLDPLKVAQHYGCALLALNWTLCTPERLLKAQRQGLHVSVWTVNEPALMRRLADFGVDSLITDFPGLASATLGNEGHHHHHH”, the “soluble on expression in E. coli” value is “not soluble”.

With “MKEKIPFYNEKEFNEMMKKTKKGTFSGWYIINPENNSVEFSGSFNRQFKLNKPIIPVNTEYVTRKEFNEYKDSNDQRLIKIETTLTAQGEQINKLTQTVEKQGEQIRELQVEQKAQGEQIKAQGETLKLILQTLQKMSDRLDKIDPPK”, the “soluble on expression in E. coli” value was “soluble”.

In the case of “MGSDKIHHHHHHMLGFRALAKPGAISMWVPQYSHQTQPVYLMIADALEQDIESGRLAEGDRLPTLKDLAEALNVTPGTVGRAYDEAAKRGLVAGEVGRGTFVRQLRQPLPAPSVPTPVAGESSQIDLSIIKPNDAHMSEWLGTAISELAASSDLGQVLDYVTEGGHTSHKQAGATWIQRWLPDARWQQVVLTAGAQHGLLVAISSLSKSDDVVLCESLCYPGIISLAHSLGRRLRGVAMDEHGLIPEALRAACLEHRPSLLVCVTTHQNPTNSIMPPARRQAIAEIAREFDLFIVDDDIYGFLEPSPDYKPLAAYAPERSVYLTSLSKSVLPALRIGYLYAPPQTLSRLSSMVRSSVWMPSPLMAQLASNLINSGKADQLVRMQQQEAAARQHMAREILGQYKIRSQPHSFHIWLELPEPWTSDEFANLARDNGVTVVSGSQFLPERSHATSGVRIALMAPSRQELGFALTKLASLLDSPEPRLFY”, the “soluble on expression in E. coli” value is “not soluble”.

Take “MACLSPSQLQKFQQDGFLVLEGFLSAEECVAMQQRIGEIVAEMDVPLHCRTEFSTQEEEQLRAQGSTDYFLSSGDKIRFFFEKGVFDEKGNFLVPPEKSINKIGHALHAHDPVFKSITHSFKVQTLARSLGLQMPVVVQSMYIFKQPHFGGEVSPHQDASFLYTEPLGRVLGVWIAVEDATLENGCLWFIPGSHTSGVSRRMVRAPVGSAPGTSFLGSEPARDNSLFVPTPVQRGALVLIHGEVVHKSKQNLSDRSRQAYTFHLMEASGTTWSPENWLQPTAELPFPQLYT”: the “soluble on expression in E. coli” value is reported as “soluble”.

Turning to “MSLTGFLLLHGTIVTVDRERRIIEDGALAINDDRIVDIGTVDELEPRHGGKEVIDCRGKLIIPGLIDAHGHAGHALLRSIAADTNAMWMKIITPTYYHYVTRDYWYADGLISGIERLRAGVTTGASIITSMPRADDPVFAINHARAYSELGLREIICVGPSGLPWPHPVTRWESGQPERRDVSFDEMMDGSEAVIETLHGSADGRISVFLTPFTIVPSVEPSNASSPDQAVKLTEGDRMQARRVREMARKRGVRLHSDAFAGQIRMAFQDKENALLGPDIHLQHCWGISHDEIDILAETGTRVTHAPPGRSTPIMEMMSKSIRVAITTDGAAPSRHFDMLQTARLAQFTQHLLHNHDRYLLPPGKIFEMITIDAAHAIGMEDEIGSLEIGKKADVVIIDMRKPHLMPMWMPVHRLVHQALGSDVDTVFVDGKLLMDNGRVLTSDVDAAITFGQQEAMALAERAGLKVHMHDPGWGRLLRTFDEQVYPPRPPKDASYRVTDHESGQDHEGHHHHHH”, the “soluble on expression in E. coli” value is “soluble”.

As to “MSTEKWRTGLQIQQLHTPTDNVDRSAMKKISSMFSALQEKFQRAKAGAPTPAAVAPPAGRESHCGLRFFEYLLVVSLRKRSSGVGYEPQVTYQFPKREVMGRLQREQEEKSMKAAHLFCFPEGVHWAPVTEYSSETFSFVLTEVDGSRRNGYCRRLLPAGKGARLPEAYCIISHVACFGLFSKIFDEVEKRRQISTAMIYPFMQSLREAPLPSPGSTVSISSFIPDAGTQIIRLTRPADSWLEHVDFTALFSRLNDEELLLVFTAAVLERRIIFISEELSTLSQVLHAVAALLYPFVWQHTFISIVPSVLIDVCEAPTPYLLGVQKSMMGLITDHSDVMIVDLSTGAPTKFITRIGDEESLLPLKLKEELLSGLSARTHHASTEQLNRLVSEAFLSVFVKTVGHFSEHIKRGGKPRQFQKKSFLKAVENKTYSSFVKLFIQTQMFDLFIQEEETQSNPNGFFHRKVKEHRDRMKQEKAKAGWVRGVVI”, the “soluble on expression in E. coli” value is “soluble”.

Regarding “MEYKLHNGSGGLCCKGCSRQDKKLNTYDWLADIPGNAEECDMVEVQFKNTRKGYYRNSNKIKLEKGDIVAVEAAPGHDIGVVTLTGRLVPLQMKKANFKTDVEIKRIYRKAKPVDMEKFNEAKAKEHATMIRARQIALNLNLDMKIGDVEYQGDGNKAIFYYIADERVDFRQLIKVLAEAFRVRIEMKQIGARQEAGRIGGIGPCGRELCCATWMTSFVSVSTSAARFQDISLNPQKLAGQCAKLKCCLNYEVDCYVEAQKRLPSKEIELETKDGTFYFFKADILSNHVSYSTDKNFPANLVTISGKRAFEVIAMNKKGMKPDSLLEAEVKQESKKPIDLLEQESLTRFDRNRNNKDGNNGNRNKKKRKGNNDNRPQAQAESGNRPQQPQRGENENRPQPSENGNRGERGDRENRPRNNNNNNRNRGQNQGRNNENRRPERGQNQERPQNPNRPQNQERSQNQERPVNQERNQERNQERPQNRERQPKQERPQNQERPQEQGRQPNQERIPRPERNSNQEKPQNNEKPAQELEHHHHHH”, the “soluble on expression in E. coli” value was “soluble”.

For “MSRPRKRLAGTSGSDKGLSGKRTKTENSGEALAKVEDSNPQKTSATKNCLKNLSSHWLMKSEPESRLEKGVDVKFSIEDLKAQPKQTTCWDGVRNYQARNFLRAMKLGEEAFFYHSNCKEPGIAGLMKIVKEAYPDHTQFEKNNPHYDPSSKEDNPKWSMVDVQFVRMMKRFIPLAELKSYHQAHKATGGPLKNMVLFTRQRLSIQPLTQEEFDFVLSLEEKGPSLEHHHHHH”, the “soluble on expression in E. coli” value is reported as “not soluble”.

For the sequence “MSLGPADGGGDLVGVAGRESWVQTVPYGMVVCPSGTFHMGQADEDVPATQINLNKQVTIGGFYMDETEITNNEYRQFMNVMLEDSVATLGEEYIMTELYPDTTVWVRDFSHHMGDPMMEYYYAHPAFDEYPVVGVDWWAAKYFCEWRTQHMNNWRAENGLWQMPRFRLPSEAEWEYAARGGRDMAKYPWGNPYIRNSKGCMLANFKPGRGNYYDDGFMYTSPVASYFSNDFGLYDMAGNISEWCEDAYYDAAVPIVWDLNPTYYNDDEVRKIIRGGSWKDIAYYLETGTRTFEYQDTSKSYIGFRTVMTYLGRSSGYEGHHHHHH”, the “soluble on expression in E. coli” value was “not soluble”.

On to “MTFQNKKILVAGLGGTGISMIAYLRKNGAEVAAYDAELKAERVAQIGKMFDGLVFYTGRLKDALDNGFDILALSPGISERQPDIEAFKQNGGRVL”, for which the “soluble on expression in E. coli” value was “not soluble”.

As for “MVTPFPEVSEWLCIGQIVGAHGLRGEVKVKPFSDFPERFTVPGCRWLRSPRQPQPYAVTLLRGRFLPRAEQFVVTFAEISDRTAAEALKGAEILVPASDRPPLAANEYHLMDLIGLAVYHQGERVGEVVGLVNAGNDLLEVQLLDPAPKAPQSVYIPFVPAIVPVVDLAARRIEIDPPLGLLPLEHHHHHH”, the “soluble on expression in E. coli” value was “not soluble”.

“MSLFRGFGRSTLAKIGSTEISTEQFRQTYNDRLQQIGRQFGRPLTPDQARAIGIDRQVLQQTIAEAALDEDARRLGLGQSDADTMKSILEDPNFKGANGQFDANRFQQLIRQFGFTEQRYLAEQRRVALRRQIAGSLTAGLEAPKTLMQALSQFQSEERAIDYLKLTDAQAGTIAAPSPADLTAFYDSHKAQFRAPEYRKISFLVVTPESIAKWAEVSDADAQKLFEQRKDKLSTPEKRQLLQIVFPSVEEAQAGRAKIASGTSFADLAKERGVKPADLDLGLVSQSEMLDQKVAAAAFALPLNEVSQPVQGQFGTVLLEVTKIETEGHHHHHH”: the “soluble on expression in E. coli” value is “soluble”.

Consider “MKITLIIPTYNAGSLWPNVLDAIKQQTIYPDKLIVIDSGSKDETVPLASDLKNISIFNIDSKDFNHGGTRNLAVAKTLDADVIIFLTQDAILADSDAIKNLVYYFSDPLIAAVCGRQLPHKDANPLAVHARNFNYSSKSIVKSKADIEKLGIKTVFMSNSFAAYRRSVFEELSGFPEHTILAEDMFMAAKMIQAGYKVAYCAEAVVRHSHNYTPREEFQRYFDTGVFHACSPWIQRDFGGAGGEGFRFVKSEIQFLLKNAPFWIPRALLTTFAKFLGYKLGKHWQSLPLSTCRYFSMYKSYWNNIQYSSSKEIKLEHHHHHH”, for which the “soluble on expression in E. coli” value is listed as “soluble”.

“MAKSSERFESLRRDIDALARRLDVPSVLIMRSLPRHMRVEASAGRLEDTYPIGAEGRKSVHEDGAKPLYCERVVDRDAPLHVRDSRQETEWAGNEDEVEFGLSNYLGYPVHAPDGTPYGTVCVLDSRPRDYSAEERALLEELRRKVEALLAETVS”: the “soluble on expression in E. coli” value is listed as “not soluble”.

The values are drawn from the DeepSol protein solubility set.
